Data on one molecule can be found in publication PMC10436556, “Epigenetic control of type III interferon expression by 8-oxoguanine and its reader 8-oxoguanine DNA glycosylase1”.

For this data set, the target named is NF-kB1/p50-p50 (recombinant) (UniProt P19838 1-433). Nature of the data set: EMSA; without OGG1, time course; WCL/NE: 10 mM Tris-HCl pH 7.5, 1 mM EDTA, 50 mM NaCl, 2 mM DTT, 5% glycerol, 0.5% NP-40, BSA, poly(I:C), RT 20 min; His-IRF3: 10 mM Tris pH 7.5, 50 mM KCl, 1 mM DTT, 1% glycerol, 5 mM MgCl2, 0.05% NP-40, poly(I:C), RT 30 min. Particulars: protein: recombinant; chain copies: 2; label: Cy5 on 3' end of bottom strand (Methods text says 5'-Cy5); blunt. On the technique in general: Mobility shift assays separate free from complexed probe on a gel.
NF-kB1/p50-p50 (recombinant), sequence (P19838 1-433): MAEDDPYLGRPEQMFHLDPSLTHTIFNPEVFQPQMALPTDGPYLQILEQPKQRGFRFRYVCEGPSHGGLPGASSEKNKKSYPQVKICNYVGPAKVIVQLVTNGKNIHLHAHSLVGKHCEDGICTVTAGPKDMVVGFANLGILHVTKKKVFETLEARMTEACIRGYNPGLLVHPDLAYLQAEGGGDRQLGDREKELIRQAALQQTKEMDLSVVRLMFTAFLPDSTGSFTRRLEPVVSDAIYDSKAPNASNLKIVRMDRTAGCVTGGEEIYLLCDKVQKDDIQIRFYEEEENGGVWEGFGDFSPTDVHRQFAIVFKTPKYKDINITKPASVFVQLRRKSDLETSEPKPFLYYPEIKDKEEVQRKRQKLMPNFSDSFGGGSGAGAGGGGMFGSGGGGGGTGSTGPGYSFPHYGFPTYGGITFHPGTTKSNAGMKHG

B1: Pr2 (dsDNA)
DNA 1: CTGTGTTTTCACTTTTCCTACATCAGCTGGGACTGCCCTTCTGTCAGGGATAA
DNA 2: TTATCCCTGACAGAAGGGCAGTCCCAGCTGATGTAGGAAAAGTGAAAACACAG
modifications: 8-oxoG at top position 48
Take B1: the binding result was “binds”.
